One molecule from patent US20190062438A1 (CSL, published 2019) can be followed below.

Numbering of substitutions follows the chain as printed.

The target of test [1] is T1, shCD131 F103A (human, UniProt P32927 17-438).
T1 construct: C-terminal 6xHis
T1 sequence: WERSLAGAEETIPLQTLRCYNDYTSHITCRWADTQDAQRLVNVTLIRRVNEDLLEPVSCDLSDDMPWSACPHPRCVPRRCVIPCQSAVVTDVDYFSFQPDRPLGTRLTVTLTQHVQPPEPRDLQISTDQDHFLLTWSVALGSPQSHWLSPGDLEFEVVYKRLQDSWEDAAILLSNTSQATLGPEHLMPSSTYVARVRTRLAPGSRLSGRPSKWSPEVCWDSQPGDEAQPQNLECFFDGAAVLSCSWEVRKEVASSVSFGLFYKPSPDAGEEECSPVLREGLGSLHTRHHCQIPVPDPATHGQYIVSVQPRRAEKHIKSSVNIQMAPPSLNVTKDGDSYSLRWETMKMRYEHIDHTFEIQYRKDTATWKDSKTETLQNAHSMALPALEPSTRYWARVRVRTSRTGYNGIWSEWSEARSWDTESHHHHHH
In words: SPR, Fab over captured mutant. The protocol: (§1) As shβc is a dimer, kinetics assays were performed with shβc captured on the sensor surface, and purified Fab injected as the analyte. Avidity effects were avoided by the use of Fab rather than whole IgG.
(§2) shCD131 was captured on spots 1 and 5 of each flow cell for 2 minutes at a concentration of 0.4 μg/ml. […] For some analysis purified Fab was injected over each flow cell for 3 minutes and dissociation was monitored for a further 10 minutes. Regeneration of the surface was performed after each cycle with a 40 second injection of 25 mM glycine, pH 2.0. The analysis was performed with Fabs at several concentrations between 100 and 0.31 nM, with each concentration analyzed twice and in random order. The analysis was performed at a flow rate of 30 μl/min in HBS-EP buffer (10 mM Hepes, 150 mM NaCl, 3 mM EDTA, 0.005% Tween 20, pH 7.4) at 37° C. Responses from spots 2 and 4 of each flow cell, (in which shβc was not captured, but otherwise treated identically), were subtracted from those of spots 1 and 5 respectively to produce reference subtracted data. Reference subtracted responses from a blank injection comprising buffer alone were subtracted from the resultant sensorgrams to produce double referenced data suitable for kinetic analysis. Double-referenced sensorgrams were fitted using non-linear regression to a model describing 1:1 kinetics, including a term for mass transport limitation. The Rₘₐₓ value was fitted locally to account for slight deviations in the level of sCD131 captured, with association rate (kₐ), dissociation rate (kd) and equilibrium dissociation constant (KD) fitted globally.
(§3) Mapping of the shCD131 epitope was performed by measurement of the affinity of Fabs for various alanine point mutants of shCD131 essentially as described above, with the following exceptions. Each shCD131 mutant was captured for 120 seconds at concentrations between 1 and 5 μg/ml. For kinetic analysis, purified recombinant Fabs were injected for 2 minutes, and dissociation was monitored for a further 2 minutes. […] Fab concentrations ranged from 16 μM to 3.9 nM in two-fold dilutions.

The target of test [2] is T2, shCD131 I338A (human, UniProt P32927 17-438).
T2 construct: C-terminal 6xHis; also called 1338A
T2 sequence: T1 sequence with A87F, I322A
The experiment in a line: SPR, Fab over captured mutant. As to the method:
as §1, §2, §3
(In general: SPR reads the build-up and loss of mass on a sensor chip optically.)

In test [3] the target is T3, shCD131 Y365A (human, UniProt P32927 17-438).
T3 construct: C-terminal 6xHis
T3 sequence: T1 sequence with A87F, Y349A
The experiment in a line: SPR, Fab over captured mutant. As to the method:
as §1, §2, §3

In test [4] the target is T4, shCD131 G420A (human, UniProt P32927 17-438).
T4 construct: C-terminal 6xHis
T4 sequence: T1 sequence with A87F, G404A
The experiment in a line: SPR, kinetics, Fab over captured mutant. As to the method:
as §1, §2, §3

B1: 9A2 Fab (Fab, V domains shown)
VH: EVQLLESGGGLVQPGGSLRLSCAASGFTFSHYHMLWVRQAPGKGLEWVSSIRSSGGFTYYADSVKGRFTISRDNSKNTLYLQMNSLRAEDTAVYYCARFYDSFFDIWGQGTMVTVSS
VL: DIQMTQSPSSVSASVGDRVTITCRASQGISSWLAWYQQKPGKAPKLLIYAASSLQSGVPSRFSGSGSGTDFTLTISSLQPEDFATYYCQQANSFPITFGQGTRLEIKR
notes: also called recombinant Fab of 9A2
A word on the Kd: it is the concentration at which binding is half-saturated. Lower therefore signals a tighter complex. B1: the binding result in test [1], in test [2] and in test [3] was “no binding (tested: Fab up to 16 µM)” in each case. For the same molecule, in test [4], the Kd was determined as 63 nM.
